Here are results for 28 sequences from the supplement of paper PMC9170038.

This series concerns MS2 coat protein. In words: apparent KD of MS2 coat protein; designed switch direction (-1 OFF switch, 1 ON switch): 1; higher = weaker reporter binding. A digest of the protocol:
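The reported apparent KD is a per-design median over clusters, from curve fits of normalised cluster fluorescence. Protein titrations used SNAP-549-labelled MS2 coat protein, doubled from 0.7 or 1.5 nM to 3 µM, in Tris-HCl pH 7.5 buffer with KCl, MgCl2, BSA, DTT, tRNA and Tween-20, with no input, 200 uM small-molecule ligand, or an oligonucleotide input. The RNA switches were transcribed on Illumina chips by stalled E. coli RNA polymerase.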

[1] abbreviates: Eterna round: R95, input ligand: FMN 200 uM.
The mark [2] stands for this setting: Eterna round: R95, input ligand: microRNA oligo, concentration not stated.
[3] abbreviates: Eterna round: R95, input ligand: none.
Setting [4] is: input ligand: microRNA oligo, concentration not stated.

As for “CGUUCAUACUCAGGACGGAGAGUAGAGGAACAUGAGGAUCACCCAUGUAUGAGCUUUUUGCUCGUCAUGAACAGGAG [JR_SHM208a_Sub011] (puzzle: Sensor for hsa-mir-208a)”, the “apparent KD of MS2 coat protein” value by setting is: under setting [1], 103 nM; under setting [2], 72.2 nM; under setting [3], 117 nM.

For “CGUCGCUGUCGAGAGGAUAUGCGGUGGUGGACAUGAGGAUCACCCAUGUUAGCGAUAGCAUCACGGUAGAAGGCUCUUACGACUG [Soteed Omei mod 25] (puzzle: Same State 2)”, under setting [2], the “apparent KD of MS2 coat protein” value was 18.1 nM.

As for “GCUGCAAUAAACGCCUACAUGAGGAUCACCCAUGUAUGUAGGCAGGAUAUCGUAUGCAAAGCAUACGAGAAGGGCUGUAGUAGC [Mat - Same State NG 3 - JL Mod - D39] (Eterna round: R96, puzzle: Same State NG 3)”, the “apparent KD of MS2 coat protein” value is, setting by setting: (input ligand: FMN 200 uM) 65.3 nM; under setting [4], 97.3 nM; (input ligand: none) 112 nM.

Regarding “GGCUAGGAUAUCUGCAGGAUCACCGCGGAGAAGGAGCUAAGCUAGGAUAUCCGCAGGAUCACCGCGGAGAAGGAGCAUCAUCUC [pwkr ssNG3 DX 2xF5 +2xFMN.16] (Eterna round: R96, puzzle: Same State NG 3)”, the “apparent KD of MS2 coat protein” value runs as follows: (input ligand: FMN 200 uM) 135 nM; under setting [4], 123 nM; (input ligand: none) 429 nM.

For “UUUUCGAACCGAGGAUAUCCUUAUAAGAAACAUGAGGAUCACCCAUGUAAAGGGAAUUAUUUGAAGGAGAAGGCGGAUUUUGUU [JR_SSNG2_Sub053] (Eterna round: R96, puzzle: Same State NG 2)”, under setting [4], the “apparent KD of MS2 coat protein” value was found to be 33.5 nM.

With “GUAGCAUACCGAGGAUAUUCAUAUACAUGAGGAUCACCCAUGUUUAUAUAGGCCAAAAGGCCUUGGGAGAAGGCGGAAUGCUAC [Xeonanis - 20 Mod10] (Eterna round: R96, puzzle: Same State NG 2)”, the “apparent KD of MS2 coat protein” value is, setting by setting: (input ligand: FMN 200 uM) 12.1 nM; under setting [4], 7.88 nM; (input ligand: none) 13 nM.

“GUACAUAUUAUAGGAUAUCACGUCGUUUAGACGUGAGAAGGAUAAUCCCACAUGAAUAUUAAUACAUGAGGAUCACCCAUGUAC [SSNG1/18-A3] (Eterna round: R96, puzzle: Same State NG 1)”: the “apparent KD of MS2 coat protein” value (input ligand: FMN 200 uM) came to 64.2 nM, the “apparent KD of MS2 coat protein” value under setting [4] turned out to be 48 nM and the “apparent KD of MS2 coat protein” value (input ligand: none) turned out to be 63.9 nM.

For “AGCUAGUACCGAGGAUAUACAUACAUGAGGAUCACCCAUGUAUACAUGAAUUAAUGAGACUACAUGUAGAAGGCGGUACUAGCA [JL SSNG2 1.22] (Eterna round: R96, puzzle: Same State NG 2)”, the “apparent KD of MS2 coat protein” value under setting [4] turned out to be 54 nM.

“ACAUGAGACAUAGGAUAUCUUGUACCUACAUGUGACAUGAGGAUCACCCAUGUGGUAAGUAUGAGAGAGAAGGAUGAGAUAUGU [Equivalence 48 - Jieux - Same State NG 2] (Eterna round: R96, puzzle: Same State NG 2)”: the “apparent KD of MS2 coat protein” value (input ligand: FMN 200 uM) is 17.5 nM, the “apparent KD of MS2 coat protein” value under setting [4] worked out at 17.9 nM and the “apparent KD of MS2 coat protein” value (input ligand: none) stood at 20.6 nM.

Regarding “AGAGAACAUGAGGAUCACCCAUGUAGGAUGGGCAUAGGAUAUAGAAGGAUGAGGGAGAAACUAGAAGGAUGAUGGA [JR_SS1_Sub077] (puzzle: Same State 1)”, the “apparent KD of MS2 coat protein” value is, setting by setting: under setting [1], 124 nM; under setting [2], 152 nM; under setting [3], 278 nM.

As for “AGUCCAGCCUGAGCUGGACAAAAGCAUGUACAUGAGGAUCACCCAUGUCAUGUACAAGCUUUUUGCUAGUCUUAAAA [Mat - hsa-mir-208a - Mod of JL - D12] (puzzle: Sensor for hsa-mir-208a)”, the “apparent KD of MS2 coat protein” value under setting [1] was 413 nM, the “apparent KD of MS2 coat protein” value under setting [2] was determined as 13.7 nM and the “apparent KD of MS2 coat protein” value under setting [3] was 551 nM.

Turning to “CUCGUAUCGGGAGGAUAUGGUGCCUUGUUGGUGCUAGAAGGUCCAACAUGAGGAUCACCCAUGUGCGAGUGGUUGAGAGACCGG [SS NG10LRO15] (Eterna round: R96, puzzle: Same State NG 1)”, the “apparent KD of MS2 coat protein” value runs as follows: (input ligand: FMN 200 uM) 336 nM; under setting [4], 230 nM; (input ligand: none) 399 nM.

Turning to “AGCAUACAUGAGGAUCACCCAUGUCAACUUAGUCGAGGAUAUGGGCAGCCGUGAGGCGAACCAGAAGGCGAAUUGA [Mat - Same State 1 - Mod of JL - D2] (puzzle: Same State 1)”, the “apparent KD of MS2 coat protein” value was determined as 18.5 nM under setting [1], 28.1 nM under setting [2] and 26.2 nM under setting [3].

In the case of “GGUAUACAUGAGGAUCACCCAUGUCGUAUGACAUGAGGAUAUGUACAGACUUCGGUCUGUACAGAAGGCGUGUGUC [SS1 - 1011 Omei Mod 6] (puzzle: Same State 1)”, the “apparent KD of MS2 coat protein” value under setting [2] is 307 nM.

With “AGUCCAGCCUGAGCUGGACAAAAGCAUGUACAUGAGGAUCACCCAUGUUCAUGUACAAGCUUUUUGUUCGUCUUAAA [Zipper 52 - 9] (puzzle: Sensor for hsa-mir-208a)”, the “apparent KD of MS2 coat protein” value by setting is: under setting [1], 179 nM; under setting [2], 11 nM; under setting [3], 431 nM.

Take “GUCAGCGAUUGAGGAUAUCACGUCGUUUAGACGUGAGAAGGCGAUCAUAACAUGAGGAUCACCCAUGUAUUACAUGAAGCUGAC [SSNG1/5-A3] (Eterna round: R96, puzzle: Same State NG 1)”: the “apparent KD of MS2 coat protein” value is, setting by setting: (input ligand: FMN 200 uM) 17.2 nM; under setting [4], 20.1 nM; (input ligand: none) 32.6 nM.

Regarding “GCUCGAUGAAAGUCCUACAUGAGGAUCACCCAUGUACGUGGGCAGGAUAUCUACAUGCAGAGUGUAGAGAAGGGCCCAUCGAGC [SameState NG3 #60] (Eterna round: R96, puzzle: Same State NG 3)”, the “apparent KD of MS2 coat protein” value runs as follows: (input ligand: FMN 200 uM) 18.6 nM; under setting [4], 22.6 nM; (input ligand: none) 34.9 nM.

Turning to “GUAUAACAUGAGGAUCACCCAUGUCAACAAAGUCGAGGAUAUGGGCAUAGAUUAUAAGAACCAGAAGGCGAAUAUG [Mat - Same State 1 - Mod of UCT - D42] (puzzle: Same State 1)”, the “apparent KD of MS2 coat protein” value by setting is: under setting [1], 119 nM; under setting [2], 219 nM; under setting [3], 666 nM.

In the case of “GCUGCGUUUAACGCCUACAUGAGGAUCACCCAUGUAUGUAGGCAGGAUAUCGUUUGCUUUGCAAACGAGAAGGGCUGUAGUAGC [salish99_SSNG3_R04_005] (Eterna round: R96, puzzle: Same State NG 3)”, the “apparent KD of MS2 coat protein” value worked out at 41.6 nM (input ligand: FMN 200 uM), 85 nM under setting [4] and 73.8 nM (input ligand: none).

As to “GGAGAACAUGAGGAUCACCCAUGUGGAUGGGCGCUAGGAUAUGCGAGAGGGUGAAGAGAAGCAGAAGGAGUGGAUA [JR_SS1_Sub036] (Eterna round: R96, puzzle: Same State 1)”, the “apparent KD of MS2 coat protein” value is, setting by setting: (input ligand: FMN 200 uM) 130 nM; under setting [4], 96.6 nM; (input ligand: none) 147 nM.

With “CUGAGCAGUCAAGGAUAUCACGUCGAUUAGACGUGAGAAGGUGACCAAUACAUGAGGAUCACCCAUGUAAUACAUGAAGCUCAG [SSNG1/12-A2] (Eterna round: R96, puzzle: Same State NG 1)”, the “apparent KD of MS2 coat protein” value (input ligand: FMN 200 uM) was found to be 20.4 nM, the “apparent KD of MS2 coat protein” value under setting [4] is 28.5 nM and the “apparent KD of MS2 coat protein” value (input ligand: none) amounted to 39.5 nM.

On to “AAAAAACAUGAGGAUCACCCAUGUAAAAAAAUGGGAGGAUAUCUGAAUUAAUUAAAUUAAGGAGAAGGCCUAAAAA [71%, Same state of confusion2, 4] (Eterna round: R96, puzzle: Same State 1)”, for which, under setting [4], the “apparent KD of MS2 coat protein” value was determined as 192 nM.

On to “AACAAUCUAUCUGAGGAUAUCAUGUCAAAGACAUGAGGAUCACCCAUGUUGCAGGAAACUGCUCAUGAGAAGGCAGAUAGAUUGA [SS2: 1129] (Eterna round: R96, puzzle: Same State 2)”, for which the “apparent KD of MS2 coat protein” value is, setting by setting: (input ligand: FMN 200 uM) 41 nM; under setting [4], 329 nM; (input ligand: none) 385 nM.

Regarding “GAGUGGCAGUUAGGAUAUAUAGUGAUAAUGAUAAUAGAAGGAACAGACAUGAGGAUCACCCAUGUAGGACUAAUCCAGAGAGAG [Parity 34 - Jieux - Same State NG 1] (Eterna round: R96, puzzle: Same State NG 1)”, the “apparent KD of MS2 coat protein” value runs as follows: (input ligand: FMN 200 uM) 32.3 nM; under setting [4], 21.7 nM; (input ligand: none) 28.3 nM.

Turning to “CUUUUUAAUGCAGGAUAUGAUCAACAUGAGGAUCACCCAUGUGGCGUUGUGAGUAAGGAGAGUGAUCAGAAGGGCAUCUCCUCA [SS-NG2-LRO07] (Eterna round: R96, puzzle: Same State NG 2)”, the “apparent KD of MS2 coat protein” value (input ligand: FMN 200 uM) stood at 57.5 nM, the “apparent KD of MS2 coat protein” value under setting [4] is 54.5 nM and the “apparent KD of MS2 coat protein” value (input ligand: none) was 45.8 nM.

On to “UAUAUUAUGGUAGGAUAUGUAGGAUAUGGCGAGAGCUAAGCUUGGAAGUCACUUCAGCCAGAAGGACAGAAGGACCAUAAUAUU [pwkr ssNG2 2FMN + F9.9] (Eterna round: R96, puzzle: Same State NG 2)”, for which the “apparent KD of MS2 coat protein” value turned out to be 16.6 nM (input ligand: FMN 200 uM), 127 nM under setting [4] and 216 nM (input ligand: none).

On to “GAGGGACAGACCAACAUGAGGAUCACCCAUGUCCUCGCAGGUCAGGAUAUUAUUAGGAUCACCAGUGAGAAGGGACGGUGAAGG (Eterna round: R96, puzzle: Same State NG 3)”, for which the “apparent KD of MS2 coat protein” value was 366 nM (input ligand: FMN 200 uM), 227 nM under setting [4] and 521 nM (input ligand: none).

Take “UGAAUAGUUACAGGAUAUGAGCCGUAAAUUGGGUCAGAAGGGUGGGUGUUUUGCGCUGUGUGCUACAUGAGGAUCACCCAUGUU [SameState NG1 #33] (Eterna round: R96, puzzle: Same State NG 1)”: the “apparent KD of MS2 coat protein” value worked out at 520 nM (input ligand: FMN 200 uM), 172 nM under setting [4] and 240 nM (input ligand: none).
